The experiment deals with DNMT3A^R736S (human) (UniProt Q9Y6K1). As to the kind of experiment: SEC + other: negative-stain EM.

In the case of “DNMT3A^R736S (from UniProt Q9Y6K1 1-912) (enzyme)”, the stoichiometry N was found to be 2.

For the origin of these results see article doi:10.1101/2023.02.13.528223.
